This is an account of results in US20140178935A1 (AVEO PHARMACEUTICALS, published 2014).

Where a chain is given by its changes, count along the chain named.

The chains are these.
B1: anti-hHGF monoclonal antibody 3B6 (antibody, mouse IgG1, kappa, V domains shown)
VH: QVQLQQSGAELVRPGSSVKISCKASGYVFSSYWMNWVKQRPGQGLEWIGQIYPGDGDSNYNGNFKGKATLTADKSSSTAYMQLSSLTSEDSAVYFCASQLGLRENYFDYWGQGTTLTVSS
VL: DIKMTQSPSSMYASLGERVTITCKASQDIKSYLSWFQQKPGKSPKTLIYRVNRLVDGVPSRFSGSGSGQDSSLTITSLENEDMGIYYCLQYDEFPFTFGGGTKLEIKR
notes: Murine IgG1 kappa from hybridoma
B2: anti-hHGF monoclonal antibody 1A3 (antibody, mouse IgG1, kappa, V domains shown)
VH: EVQLVESGGGLVQPGGSLKLSCAASEFTFSNYYMSWVRQTPEKRLQWVAYISPGGGSSYYPASVKGRFTISRDNAKNTLYLQMSSLKSEDTAMYYCARQGDGYYGDYAMDYWGQGTSVTVSS
VL: DIQMTQSPASLSVSVGETVTITCRASENIYSNLAWYQQKQGKSPQLLVYAATNLADGVPSRFSGSGSGTQFSLKINSLQSEDFGTYYCQHFWGTPYTFGGGTKLEIKR
notes: as for B1
B3: anti-hHGF monoclonal antibody 3A12 (antibody, mouse IgG1, kappa, V domains shown)
VH: B2 VH with L20I, E26G, Y33F, Q46E, P53S, S58T, A62D, S84N, A97V
VL: B2 VL with S31I, Y49H, N53K, F71Y, T85S
notes: as for B1
B4: anti-hHGF monoclonal antibody 2F8 (antibody, mouse IgG1, kappa, V domains shown)
VH: QVQLKQSGAELVRPGTSVKMSCKASGYTFTTYYIHWVNQRPGQGLEWIGKIGPGSGSTYYNEMFKDKATLTVDTSSSTAYMQLSSLTSDDSAVYFCARRGLGRGFDYWGQGTTLTVSS
VL: DIVLTQSPASLAVSLGQRATISCKASQSVDYDGNSYINWYQQKPGQPPKVLIYVASNLESGIPARFSGSGSGTDFTLNIHPVEEEDAATYYCQQSIEDPPTFGAGTKLELKR
notes: as for B1
B5: anti-hHGF monoclonal antibody 3D11 (antibody, mouse IgG1, kappa, V domains shown)
VH: QVQLKESGPGLVAPSQSLSITCTVSGFSLTSYSLHWVRQPPGKGLEWLGVIWAGGNTNYNSSLMSRLTIRKDNSKSQVFLKMNSLQTDDTAMYYCARERFAYWGQGTLVTVSA
VL: QIVLTQSPAIMSAYPGEKVTMTCSASSSVSYMHWYQQKSGTSPKRWIYDTSKLASGVPARFSGSGSGTSYSLTISSMEAEDAATYYCQQWSSNPLTFGAGTKLELKR
notes: as for B1

hHGF-Fc C561R (recombinant hHGF protein containing a cysteine to arginine substitution at position 561) (human), sequence (chain, as listed by the source C561R C561R limits assumed): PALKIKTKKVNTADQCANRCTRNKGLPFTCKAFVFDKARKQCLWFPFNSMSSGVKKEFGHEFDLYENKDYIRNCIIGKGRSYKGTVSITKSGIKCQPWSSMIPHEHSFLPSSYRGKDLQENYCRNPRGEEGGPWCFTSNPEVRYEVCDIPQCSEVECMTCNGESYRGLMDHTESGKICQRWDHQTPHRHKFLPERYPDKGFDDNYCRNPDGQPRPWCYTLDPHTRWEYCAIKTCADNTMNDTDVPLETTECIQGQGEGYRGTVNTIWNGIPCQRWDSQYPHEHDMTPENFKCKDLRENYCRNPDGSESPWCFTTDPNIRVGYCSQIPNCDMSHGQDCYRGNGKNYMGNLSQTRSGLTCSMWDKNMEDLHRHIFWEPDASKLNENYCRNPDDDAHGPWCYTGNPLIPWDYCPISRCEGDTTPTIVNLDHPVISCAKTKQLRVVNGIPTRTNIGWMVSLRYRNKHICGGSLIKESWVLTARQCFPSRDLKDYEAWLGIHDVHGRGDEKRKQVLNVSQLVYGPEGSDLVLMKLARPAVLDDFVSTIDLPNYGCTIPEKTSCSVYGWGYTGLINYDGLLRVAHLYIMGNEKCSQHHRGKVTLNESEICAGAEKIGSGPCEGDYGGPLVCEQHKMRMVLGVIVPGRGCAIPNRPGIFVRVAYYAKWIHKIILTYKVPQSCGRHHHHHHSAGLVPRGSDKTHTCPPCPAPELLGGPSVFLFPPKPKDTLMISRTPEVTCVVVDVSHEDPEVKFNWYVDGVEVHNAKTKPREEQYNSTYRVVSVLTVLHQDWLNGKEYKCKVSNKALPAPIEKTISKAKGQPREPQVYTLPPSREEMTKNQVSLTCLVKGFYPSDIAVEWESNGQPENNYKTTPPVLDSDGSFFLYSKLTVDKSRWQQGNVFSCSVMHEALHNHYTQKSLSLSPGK
hHGF-Fc G555E (recombinant hHGF protein containing a glycine to glutamate substitution at position 555) (human), sequence (chain, as listed by the source G555E G555E limits assumed): as the sequence (chain, as listed by the source C561R C561R limits assumed) above, with G501E, R507C counted along it

For the first experiment, the target named is T1, recombinant human HGF (R&D Systems, Catalog No. 294-HGN-025) (human, UniProt P14210 32-728). The experiment in a line: cell-based or functional assay.
T1 sequence (P14210 32-728 limits assumed): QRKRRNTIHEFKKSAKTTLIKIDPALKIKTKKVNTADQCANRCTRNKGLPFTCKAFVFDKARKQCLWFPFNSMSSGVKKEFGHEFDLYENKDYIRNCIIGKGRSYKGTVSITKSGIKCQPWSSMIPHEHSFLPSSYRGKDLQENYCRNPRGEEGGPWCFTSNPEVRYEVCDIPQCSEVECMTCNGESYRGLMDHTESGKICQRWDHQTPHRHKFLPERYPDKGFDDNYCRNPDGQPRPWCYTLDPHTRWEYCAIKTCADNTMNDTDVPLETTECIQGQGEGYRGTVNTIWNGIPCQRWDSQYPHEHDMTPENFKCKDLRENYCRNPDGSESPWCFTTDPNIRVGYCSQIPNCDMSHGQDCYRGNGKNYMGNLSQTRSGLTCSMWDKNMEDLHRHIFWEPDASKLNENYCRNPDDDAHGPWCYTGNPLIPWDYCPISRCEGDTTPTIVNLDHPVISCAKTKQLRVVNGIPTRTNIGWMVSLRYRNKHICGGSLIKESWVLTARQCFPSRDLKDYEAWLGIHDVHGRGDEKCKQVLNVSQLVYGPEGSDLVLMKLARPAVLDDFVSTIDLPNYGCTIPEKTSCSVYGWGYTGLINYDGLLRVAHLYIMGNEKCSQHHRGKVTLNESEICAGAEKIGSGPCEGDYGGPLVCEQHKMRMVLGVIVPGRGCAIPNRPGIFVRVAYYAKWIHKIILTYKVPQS
As for B1, the “EC50, inhibition of HGF-stimulated c-Met phosphorylation in PC-3 cells, Average of Two Trials” value (“EC50, inhibition” for short) stood at 1.01 nM.
For the molecule B2, the “EC50, inhibition” value came out at 0.684 nM.
Consider B3, for which the “EC50, inhibition” value stood at 2 nM.
In the case of B4, the “EC50, inhibition” value was found to be 1.39 nM.
As to B5, the “EC50, inhibition” value came to 2.28 nM.

The target in another experiment is T1, recombinant human HGF (R&D Systems, …). Description: SPR, antibody captured by anti-mouse Ig, HGF injected, 25 C. The method, then: Rabbit anti-mouse immunoglobulins (BIAcore, Catalog No. BR-1005-14) were immobilized on carboxymethylated dextran CM5 sensor chips (BIAcore, Catalog No. BR-1006-68) by amine coupling (BIAcore, Catalog No. BR-1000-50) using a standard coupling protocol according to manufacturer's instructions. The analyses were performed at 25° C. using PBS (GIBCO, Catalog No. 14040-133) containing 0.05% surfactant P20 (BIAcore, Catalog No. BR-1000-54), 2 mg/mL BSA (EMD, Catalog No. 2930), and 10 mg/mL CM-Dextran Sodium salt (Fluka, Catalog No. 86524) as running buffer.
The antibodies were captured in an individual flow cell at a flow rate of 10 μL/min. Injection time was variable for each antibody to yield approximately 20 RU of antibody captured for each cycle. […] The dissociation phase was monitored for 15 or 90 minutes, depending on concentration. The surface then was regenerated with 10 mM Glycine-HCl, pH 1.7 (BIAcore, Catalog No. BR-1003-54) injected for 3 minutes at a flow rate of 60 μL/min before another cycle was initiated.
Kinetic parameters were determined using the kinetic function of the BIAevalutation software with reference subtraction.
(Surface plasmon resonance follows binding to a sensor surface in real time, without labels.)
Consider B1, for which the Kd was determined as 0.017 nM, the koff is 3.9e-05 s⁻¹ and the kon amounted to 2e+06 M⁻¹ s⁻¹.
B2: the Kd stood at 0.0301 nM, the koff amounted to 5.2e-05 s⁻¹ and the association rate constant (kon) was found to be 1.7e+06 M⁻¹ s⁻¹.
Consider B3, for which the dissociation constant (Kd) was found to be 0.103 nM, the dissociation rate constant (koff) was found to be 0.00016 s⁻¹ and the association rate constant (kon) is 1.6e+06 M⁻¹ s⁻¹.

Another experiment has as its target hHGF-Fc C561R (recombinant hHGF protein containing a cysteine to arginine substitution at position 561) (human). The experiment in a line: SPR, antibody immobilized, HGF protein injected, 25 C. The method, then: (§1) Each antibody was immobilized on a carboxymethylated dextran CM5 sensor chip (BIAcore, Catalog No. BR-1006-68) by amine coupling (BIAcore, Catalog No. BR-1000-50) using a standard coupling protocol according to manufacturer's instructions.
(§2) Analyses were performed at 25° C. using PBS (GIBCO, Catalog No. 14040-133) containing 0.05% surfactant P20 (BIAcore, Catalog No. R-1000-54), 2 mg/mL BSA (EMD, Catalog No. 2930) and 10 mg/mL CM-Dextran Sodium salt (Fluka, Catalog No. 86524) as running buffer. […] The resulting binding was determined as resonance units (RU) over baseline 30 seconds after the end of injection. […] Non-specific binding was monitored by comparing binding to a control surface where mouse IgG (Rockland, Catalog No. 010-0102) was immobilized using the same amine coupling procedure.
Consider B1, for which the binding result is “binds”.
On to B2, for which the binding result is reported as “binds”.
B3: the binding result was “binds”.
Regarding B4, the binding result is given as “binds”.
For the molecule B5, the binding result was “binds”.

In a further experiment the target is hHGF-Fc G555E (recombinant hHGF protein containing a glycine to glutamate substitution at position 555) (human). Described as above. The method, then:
as §1, §2
On to B1, for which the binding result is “binds”.
For B2, the binding result was “binds”.
For B3, the binding result is reported as “binds”.
As for B4, the binding result is recorded as “binds”.
For B5, the binding result is “binds”.

Another experiment deals with T2, recombinant mouse HGF (R&D Systems) (mouse, UniProt Q08048 33-728).
T2 construct: Bought protein, construct not described; also called rmHGF (R&D Systems); murine HGF
T2 sequence (Q08048 33-728 limits assumed): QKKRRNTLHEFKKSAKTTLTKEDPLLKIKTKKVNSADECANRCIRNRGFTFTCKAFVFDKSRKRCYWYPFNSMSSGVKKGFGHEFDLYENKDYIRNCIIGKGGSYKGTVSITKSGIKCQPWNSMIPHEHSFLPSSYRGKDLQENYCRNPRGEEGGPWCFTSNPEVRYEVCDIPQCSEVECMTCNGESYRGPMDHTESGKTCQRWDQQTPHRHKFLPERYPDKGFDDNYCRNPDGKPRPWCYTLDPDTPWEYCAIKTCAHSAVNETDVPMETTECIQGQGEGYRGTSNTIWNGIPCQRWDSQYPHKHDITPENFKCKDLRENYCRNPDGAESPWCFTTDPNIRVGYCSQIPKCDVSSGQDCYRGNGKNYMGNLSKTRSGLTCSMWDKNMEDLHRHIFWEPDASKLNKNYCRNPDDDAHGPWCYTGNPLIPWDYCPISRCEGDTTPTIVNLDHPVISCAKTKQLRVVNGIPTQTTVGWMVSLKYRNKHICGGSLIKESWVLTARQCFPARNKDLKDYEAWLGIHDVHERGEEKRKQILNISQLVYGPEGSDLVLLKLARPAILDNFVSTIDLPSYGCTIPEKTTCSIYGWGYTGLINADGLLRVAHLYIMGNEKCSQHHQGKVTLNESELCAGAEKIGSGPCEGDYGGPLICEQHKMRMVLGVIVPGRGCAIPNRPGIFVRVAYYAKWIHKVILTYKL
The experiment is described as above. The method, then: as §1, §2
Regarding B1, the binding result is on record as “no binding”.
For B2, the binding result is on record as “no binding”.
In the case of B3, the binding result is on record as “no binding”.
In the case of B4, the binding result is “binds”.
Consider B5, for which the binding result is reported as “no binding”.

The target in a further experiment is T3, recombinant mouse-human-mouse (mhm) chimeric HGF protein containing the human V495-L585 HGF sequence disposed … (mouse-human-mouse chimera, UniProt Q08048 56-728).
T3 construct: CHO supernatant was used; also called mhm chimera (V495-L585); MHM chimera (495-585)
T3 chain: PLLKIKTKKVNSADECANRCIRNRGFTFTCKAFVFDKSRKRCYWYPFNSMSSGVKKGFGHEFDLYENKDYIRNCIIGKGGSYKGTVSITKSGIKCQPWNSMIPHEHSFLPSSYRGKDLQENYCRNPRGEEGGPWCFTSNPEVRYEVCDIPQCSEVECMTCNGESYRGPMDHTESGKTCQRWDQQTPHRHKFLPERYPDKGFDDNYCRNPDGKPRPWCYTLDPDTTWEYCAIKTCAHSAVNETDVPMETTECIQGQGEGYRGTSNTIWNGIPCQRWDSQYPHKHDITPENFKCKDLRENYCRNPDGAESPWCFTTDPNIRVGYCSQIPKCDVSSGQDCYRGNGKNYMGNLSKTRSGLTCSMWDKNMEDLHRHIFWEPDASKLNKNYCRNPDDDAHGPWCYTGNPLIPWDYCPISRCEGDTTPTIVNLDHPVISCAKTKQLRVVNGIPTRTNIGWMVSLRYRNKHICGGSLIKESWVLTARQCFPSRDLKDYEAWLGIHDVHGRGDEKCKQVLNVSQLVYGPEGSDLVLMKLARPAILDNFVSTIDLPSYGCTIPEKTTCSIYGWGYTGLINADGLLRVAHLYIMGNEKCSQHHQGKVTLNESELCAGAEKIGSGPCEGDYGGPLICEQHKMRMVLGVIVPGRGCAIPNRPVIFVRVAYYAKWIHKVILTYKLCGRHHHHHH
Described as above. The method, then: as §1, §2
For the molecule B1, the binding result is recorded as “no binding”.
Regarding B2, the binding result is “no binding”.
Still for that read-out and setting: the result for B3 reads “no binding”; that for B4, “no binding”.
The same measure, in the same setting: next, B5: “no binding”.

The next experiment addresses T1, recombinant human HGF (R&D Systems, …). Description: competition ELISA (DELFIA): antibody inhibits c-Met binding to plate-coated HGF. As to the method: The plates then were blocked with 200 μL of 5% non-fat dry milk in PBS for 1 hour at room temperature. […] 100 μL of sample per well was transferred to the assay plate and incubated overnight at 4° C.
The resulting plates then were washed three times with PBS-0.1% Tween 20, and incubated for 1 hour at room temperature with Eu-labeled Streptavidin (Wallac, Catalog No. 1244-360) diluted 1:1000 in DELFIA assay buffer (Wallac, Catalog No. 4002-0010). The resulting plates were washed 3 times with DELFIA wash solution (Wallac, Catalog No. 4010-0010) and incubated with 100 μL/well DELFIA enhancement solution (Wallac #4001-0010) for 15 minutes at room temperature with agitation.
The plates were read on Victor³V instrument (Perkin Elmer) using the Europium method.
On the technique in general: In an ELISA, binding on a coated surface is turned into a signal by an enzyme label.
With B2, the 50% inhibitory concentration (IC50) stood at 5.65 nM.
Regarding B3, the half-inhibitory concentration (IC50) turned out to be 5.26 nM.
Take B4: the IC50 was found to be 5.36 nM.
Take B5: the IC50 was 5.66 nM.

A further experiment has the same target. Description: cell-based or functional assay. This is another data set of the same source.
As for B1, the “IC50, neutralization of HGF stimulated BrdU incorporation in 4 MBr-5 cells” value (shortened to “IC50, neutralization”) is 36.1 nM.
Turning to B2, the “IC50, neutralization” value came to 4.69 nM.
Regarding B3, the “IC50, neutralization” value was 30.3 nM.
As to B4, the “IC50, neutralization” value worked out at 19.2 nM.
Same read-out and setting: the result for B5 reads 51.1 nM.

In general, Kd refers to the equilibrium constant for the complex coming apart. For orientation: koff means a measure of how fast the partners let go of each other. By kon is commonly meant a measure of how fast the partners come together. For orientation: IC50 means the point on the concentration scale where inhibition reaches its midpoint.
